According to paper PMC117612 (Molecular Biology of the Cell, 2002):

Biological target: the molecule itself
Assay: SDS-PAGE under nonreducing and reducing conditions with Western blot

B1: murine TSP2 secreted by dermal fibroblasts (conditioned medium) (natural protein)
chain: not shown
stoichiometry N: 3
